Measurements from PMC13426413 (Science Advances, 2026).
Ends that are not written are not given here.

Tests used:
[1] = molecular target: Tom70:Hsp90_(EEVD) complex (human, UniProt O94826 108-608); assay: ITC
[2] = molecular target: T1, human Tom70 (residues 108–608) (human, UniProt O94826 108-608); assay: ITC
T1 sequence: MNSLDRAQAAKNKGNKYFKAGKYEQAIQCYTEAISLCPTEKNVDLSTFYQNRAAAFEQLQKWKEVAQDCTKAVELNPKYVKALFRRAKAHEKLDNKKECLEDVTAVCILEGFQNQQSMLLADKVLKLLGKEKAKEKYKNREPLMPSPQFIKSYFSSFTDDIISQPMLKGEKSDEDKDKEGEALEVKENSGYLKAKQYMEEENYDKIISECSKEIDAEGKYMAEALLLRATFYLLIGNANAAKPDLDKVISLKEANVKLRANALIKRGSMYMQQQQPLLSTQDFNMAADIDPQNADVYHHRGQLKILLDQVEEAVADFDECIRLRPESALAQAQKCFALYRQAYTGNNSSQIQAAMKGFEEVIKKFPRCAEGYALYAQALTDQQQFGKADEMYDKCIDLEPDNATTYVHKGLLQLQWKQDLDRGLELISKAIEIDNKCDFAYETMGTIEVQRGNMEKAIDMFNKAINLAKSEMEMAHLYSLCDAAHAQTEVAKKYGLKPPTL

[3] = molecular target: T2, ^19F-labeled Tom70 (5F-tryptophan, residues 108–608) (human, UniProt O94826 108-608, 5-fluoro-tryptophan at W169 and W523); assay: NMR titration
T2 sequence: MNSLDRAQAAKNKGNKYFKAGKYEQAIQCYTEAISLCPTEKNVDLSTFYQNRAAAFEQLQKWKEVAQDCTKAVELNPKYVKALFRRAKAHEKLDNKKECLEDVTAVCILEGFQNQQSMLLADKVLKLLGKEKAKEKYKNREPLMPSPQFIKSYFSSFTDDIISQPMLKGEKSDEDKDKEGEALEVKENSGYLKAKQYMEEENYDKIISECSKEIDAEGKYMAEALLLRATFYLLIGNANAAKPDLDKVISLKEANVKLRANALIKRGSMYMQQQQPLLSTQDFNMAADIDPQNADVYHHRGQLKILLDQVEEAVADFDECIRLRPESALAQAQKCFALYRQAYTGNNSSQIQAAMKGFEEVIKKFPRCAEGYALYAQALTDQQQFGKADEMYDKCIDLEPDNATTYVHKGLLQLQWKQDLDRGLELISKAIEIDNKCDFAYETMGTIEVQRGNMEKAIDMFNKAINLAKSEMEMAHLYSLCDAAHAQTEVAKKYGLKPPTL

[4] = molecular target: T1, human Tom70 (residues 108–608); assay: cryo-EM structure
[5] = molecular target: ^19F Tom70:Orf9b_(Helix) complex (human | SARS-CoV-2, UniProt O94826 108-608, 5-fluoro-tryptophan at W169 and W523); assay: NMR titration
[6] = molecular target: Tom70:Orf9b_(Helix) complex (human | SARS-CoV-2, UniProt O94826 108-608); assay: ITC

Measured: binding result

B1: Orf9b_(Helix) peptide (peptide)
peptide: IILRLGSPLSLNMARKTLNSLEDKAFQLTPIAVQY
binds: [1] | [2] | [3]

B2: Hsp90_(EEVD) peptide (peptide)
peptide: YDTSRMEEVD-OH
binds: [4] | [5] | [6]
